This is an account of results in article PMC7673989 (2020).

Test [1] addresses T1, KETWV peptide (synthetic construct).
T1 chain: KETWV
Briefly: ITC, 21 °C. Background: ITC needs no label: the signal is the heat of the interaction.

Test [2] concerns the target T1, KETWV peptide. Briefly: intrinsic tryptophan fluorescence quenching, 21 °C.

B1: PSD-95 PDZ3 302-403 (protein)
chain: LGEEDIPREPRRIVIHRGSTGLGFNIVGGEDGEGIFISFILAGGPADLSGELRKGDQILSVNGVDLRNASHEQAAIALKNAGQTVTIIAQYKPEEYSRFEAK
B1: the dissociation constant (Kd) turned out to be 25.2 µM in the test with KETWV peptide [1] and 24.6 µM with KETWV peptide [2].

A word on the Kd: it is the free concentration of one partner at which half of the binding sites on the other are occupied at equilibrium, for simple one-to-one binding. Low values mean higher affinity, high ones lower affinity.
